The values below are quoted from earlier work in publication PMC13348789.

For this series, the target named is IL-2Rβ/γc intermediate-affinity receptor (Homo sapiens) (UniProt P14784).
UniProt P14784, sequence (P14784 27-240, chain 1 of 2): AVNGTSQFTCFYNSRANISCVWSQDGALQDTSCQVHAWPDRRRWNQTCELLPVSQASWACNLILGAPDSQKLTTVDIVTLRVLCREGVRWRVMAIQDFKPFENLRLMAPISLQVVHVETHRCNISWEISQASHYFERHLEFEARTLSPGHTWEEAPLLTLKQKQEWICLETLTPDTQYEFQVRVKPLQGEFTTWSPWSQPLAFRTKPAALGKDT
UniProt P14784, sequence (P31785 23-262, chain 2 of 2, further chain): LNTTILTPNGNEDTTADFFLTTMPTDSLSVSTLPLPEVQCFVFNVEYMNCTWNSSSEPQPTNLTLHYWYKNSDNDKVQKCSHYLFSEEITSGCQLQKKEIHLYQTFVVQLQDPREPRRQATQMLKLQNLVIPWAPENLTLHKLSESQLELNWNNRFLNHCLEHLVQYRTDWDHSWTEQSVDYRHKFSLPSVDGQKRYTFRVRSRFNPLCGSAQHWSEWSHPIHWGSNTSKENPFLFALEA

In the case of IL-2 (from UniProt P60568), the Kd was 1 nM.
